Kd data for 2 molecules are collected here from publication PMC2680354 (Molecular cell, 2008).

In general, Kd refers to the constant that tells how readily two partners part at equilibrium.

This experiment deals with Arp2/3 complex (UniProt P61158 1-418). As to the kind of experiment: fluorescence polarisation.

B1: cortactin NtA (peptide)
chain: MWKASAGHAVSITQDDGGADDWETDPDFVNDVSEKEQRWGAKTVQGSGHQEHINIHKLRENVFQEHQTLKEKELETGPKASHGY
In turn, B1 had a Kd of 0.017 µM.

B2: chemically crosslinked WASP VCA (xlWASP VCA) (other)
chain: GGRGALLDQIRQGIQLNKTPGAPESSALQPPPQSSEGLVGALMHVMQKRSRAIHSSDEGEDQAGDEDEDDEWDD
modifications: chemically crosslinked to the second copy (crosslinker and site not shown)
The molecule B2 registered a dissociation constant (Kd) of 0.07 µM.
